Assay results published in the supplement of paper PMC9112550, “Optimization of the antimicrobial peptide Bac7 by deep mutational scanning” (BMC Biology, 2022).

What follows are sequences tested on Escherichia coli TOP10 (assay: shrunken log2 fold change of peptide-encoding DNA abundance (4.5 h post-induction vs induction); higher = less antimicrobial activity (less host growth inhibition)). Settings: time post-induction: 4.5 h; library: site-saturation at positions 5, 18, 19, 20.
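Further: peptides expressed intracellularly from a pBAD plasmid library in pooled LB shake-flask culture, induced with 0.3% L-arabinose, DNA abundance read by NGS, three biological replicates, DESeq2 with apeglm shrinkage.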

Row | Sequence | shrunken log2 fold change
1 | RRIRCRPPRLPRPRPRPKLMPRP | -0.0168
2 | RRIRDRPPRLPRPRPRPSNDPRP | 0.0978
3 | RRIRERPPRLPRPRPRPYESPRP | -0.0018
4 | RRIRNRPPRLPRPRPRPPQQPRP | 0.294
5 | RRIRARPPRLPRPRPRPGTKPRP | 0.0261
6 | RRIRTRPPRLPRPRPRPTRLPRP | 0.126
7 | RRIRSRPPRLPRPRPRPQPLPRP | 0.256
8 | RRIRFRPPRLPRPRPRPFNIPRP | -0.429
9 | RRIRHRPPRLPRPRPRPHSMPRP | -0.337
10 | RRIRCRPPRLPRPRPRPSDWPRP | -0.0723
11 | RRIRFRPPRLPRPRPRPTYDPRP | -0.604
12 | RRIRTRPPRLPRPRPRPRHQPRP | -0.154
13 | RRIRVRPPRLPRPRPRPNLVPRP | -0.2
14 | RRIRKRPPRLPRPRPRPMFQPRP | -0.0168
15 | RRIRDRPPRLPRPRPRPPYVPRP | -0.0635
16 | RRIRLRPPRLPRPRPRPGGVPRP | 0.0323
17 | RRIRQRPPRLPRPRPRPIQCPRP | 0.0238
18 | RRIRSRPPRLPRPRPRPQGKPRP | 0.0304
19 | RRIRVRPPRLPRPRPRPPVQPRP | 0.377
20 | RRIRSRPPRLPRPRPRPYTLPRP | -0.146
21 | RRIRPRPPRLPRPRPRPNPWPRP | 0.277
22 | RRIRERPPRLPRPRPRPDAYPRP | -0.532

Row | Sequence | shrunken log2 fold change
23 | RRIRERPPRLPRPRPRPMDQPRP | -0.00192
24 | RRIRRRPPRLPRPRPRPNPHPRP | 0.534
25 | RRIRSRPPRLPRPRPRPLKPPRP | 0.0304
26 | RRIRMRPPRLPRPRPRPPHEPRP | 0.445
27 | RRIRIRPPRLPRPRPRPSTVPRP | -0.566
28 | RRIRGRPPRLPRPRPRPLSKPRP | 0.425
29 | RRIRMRPPRLPRPRPRPNRTPRP | 0.13
30 | RRIRCRPPRLPRPRPRPISMPRP | -0.65
31 | RRIRSRPPRLPRPRPRPRYWPRP | 0.0181
32 | RRIRKRPPRLPRPRPRPNIWPRP | 0.519
33 | RRIRERPPRLPRPRPRPRWHPRP | 0.0135
34 | RRIRERPPRLPRPRPRPKFNPRP | -0.558
35 | RRIRWRPPRLPRPRPRPKCAPRP | 0.706
36 | RRIRDRPPRLPRPRPRPSWQPRP | 0.321
37 | RRIRLRPPRLPRPRPRPFVNPRP | -0.372
38 | RRIRQRPPRLPRPRPRPHIEPRP | -0.58
39 | RRIRDRPPRLPRPRPRPNISPRP | -0.266
40 | RRIRCRPPRLPRPRPRPAYNPRP | -0.619
41 | RRIRARPPRLPRPRPRPRAHPRP | 0.256
42 | RRIRARPPRLPRPRPRPLSAPRP | 0.636
43 | RRIRQRPPRLPRPRPRPPKTPRP | 0.113
44 | RRIRLRPPRLPRPRPRPCMVPRP | -0.365

Row | Sequence | shrunken log2 fold change
45 | RRIRGRPPRLPRPRPRPMYWPRP | -0.0689
46 | RRIRARPPRLPRPRPRPCGSPRP | -0.0125
47 | RRIRTRPPRLPRPRPRPKETPRP | 0.137
48 | RRIRARPPRLPRPRPRPEGQPRP | 1.2
49 | RRIRDRPPRLPRPRPRPNLEPRP | 0.27
50 | RRIRWRPPRLPRPRPRPKKRPRP | 0.426
51 | RRIRERPPRLPRPRPRPYPDPRP | -1.61
52 | RRIRTRPPRLPRPRPRPGPIPRP | 0.316
53 | RRIRGRPPRLPRPRPRPWFTPRP | -0.221
54 | RRIRQRPPRLPRPRPRPIKQPRP | 0.00621
55 | RRIRRRPPRLPRPRPRPYYHPRP | -0.645
56 | RRIRRRPPRLPRPRPRPVPWPRP | 0.573
57 | RRIRRRPPRLPRPRPRPVIEPRP | 0.119
58 | RRIRRRPPRLPRPRPRPHKDPRP | -0.11
59 | RRIRDRPPRLPRPRPRPDMPPRP | -0.0262
60 | RRIRNRPPRLPRPRPRPCLWPRP | -0.359
61 | RRIRRRPPRLPRPRPRPTGSPRP | 0.302
62 | RRIRWRPPRLPRPRPRPGKAPRP | 0.0616
63 | RRIRLRPPRLPRPRPRPVVWPRP | 0.547
64 | RRIRGRPPRLPRPRPRPQWAPRP | 0.498
65 | RRIRYRPPRLPRPRPRPVSRPRP | -0.0816
66 | RRIRTRPPRLPRPRPRPGCFPRP | 0.0805

Row | Sequence | shrunken log2 fold change
67 | RRIRDRPPRLPRPRPRPQCFPRP | 0.0363
68 | RRIRWRPPRLPRPRPRPCYRPRP | 0.131
69 | RRIRKRPPRLPRPRPRPEHHPRP | -0.0888
70 | RRIRKRPPRLPRPRPRPIWEPRP | 0.295
71 | RRIRDRPPRLPRPRPRPGTPPRP | 0.223
72 | RRIRARPPRLPRPRPRPPHNPRP | 0.757
73 | RRIRVRPPRLPRPRPRPAYCPRP | -0.112
74 | RRIRRRPPRLPRPRPRPNDVPRP | -0.0736
75 | RRIRYRPPRLPRPRPRPHYRPRP | -0.433
76 | RRIRLRPPRLPRPRPRPFGGPRP | -0.334
77 | RRIRFRPPRLPRPRPRPGDSPRP | -0.305
78 | RRIRRRPPRLPRPRPRPVFIPRP | -0.0708
79 | RRIRQRPPRLPRPRPRPTEQPRP | 0.0331
80 | RRIRSRPPRLPRPRPRPDIMPRP | -0.661
81 | RRIRIRPPRLPRPRPRPTKLPRP | -0.406
82 | RRIRRRPPRLPRPRPRPQLSPRP | 0.976
83 | RRIRPRPPRLPRPRPRPPLRPRP | 0.336
84 | RRIRPRPPRLPRPRPRPMEIPRP | -0.00192
85 | RRIRKRPPRLPRPRPRPVRQPRP | -0.0361
86 | RRIRERPPRLPRPRPRPWWCPRP | -0.426
87 | RRIRPRPPRLPRPRPRPYRMPRP | 0.0542
88 | RRIRLRPPRLPRPRPRPRFPPRP | -0.0246

Row | Sequence | shrunken log2 fold change
89 | RRIRRRPPRLPRPRPRPEYRPRP | -0.0195
90 | RRIRKRPPRLPRPRPRPWYAPRP | -0.132
91 | RRIRWRPPRLPRPRPRPLVKPRP | 0.147
92 | RRIRQRPPRLPRPRPRPNCMPRP | 0.188
93 | RRIRMRPPRLPRPRPRPARVPRP | 1.28
94 | RRIRVRPPRLPRPRPRPVNGPRP | 0.158
95 | RRIRYRPPRLPRPRPRPPLTPRP | -0.403
96 | RRIRCRPPRLPRPRPRPSSYPRP | -0.531
97 | RRIRNRPPRLPRPRPRPHVDPRP | 0.00884
98 | RRIRTRPPRLPRPRPRPKQCPRP | -0.00809
99 | RRIRNRPPRLPRPRPRPIYDPRP | -0.4
100 | RRIRHRPPRLPRPRPRPLWGPRP | -0.107
101 | RRIRHRPPRLPRPRPRPNCSPRP | 0.0841
102 | RRIRQRPPRLPRPRPRPDAFPRP | 0.141
103 | RRIRLRPPRLPRPRPRPCMWPRP | -0.0832
104 | RRIRWRPPRLPRPRPRPHQCPRP | -0.112
105 | RRIRPRPPRLPRPRPRPCYDPRP | -0.165
106 | RRIRYRPPRLPRPRPRPGYAPRP | -0.456
107 | RRIRNRPPRLPRPRPRPFAQPRP | -0.321
108 | RRIRNRPPRLPRPRPRPIKRPRP | 0.0699
109 | RRIRPRPPRLPRPRPRPITVPRP | -0.298
